# No end group written: not given here.
# Molecular target: HIV-1 IIIB transmembrane glycoprotein gp41 (HIV-1 IIIB)
# Test: cell-based or functional assay
binder,measurement,value
WQEWEQKITALLEQAQIQQEKNEYELQKLDKWASLWEWF (not fully specified) [T-1249 peptide],"IC50, inhibition of HIV-1 IIIB infection of MT4-Luc cells (HIV LTR-luciferase reporter assay)",~3.3 nM

# — US20050136061A1 (published 2005)
